The target of one assay is His-tagged human EphA2 (human, UniProt P29317 24-537). Kind of assay: SPR.
A further assay concerns the target T1, His-tagged mouse EphA2 (mouse, UniProt Q03145 26-538).
T1 chain: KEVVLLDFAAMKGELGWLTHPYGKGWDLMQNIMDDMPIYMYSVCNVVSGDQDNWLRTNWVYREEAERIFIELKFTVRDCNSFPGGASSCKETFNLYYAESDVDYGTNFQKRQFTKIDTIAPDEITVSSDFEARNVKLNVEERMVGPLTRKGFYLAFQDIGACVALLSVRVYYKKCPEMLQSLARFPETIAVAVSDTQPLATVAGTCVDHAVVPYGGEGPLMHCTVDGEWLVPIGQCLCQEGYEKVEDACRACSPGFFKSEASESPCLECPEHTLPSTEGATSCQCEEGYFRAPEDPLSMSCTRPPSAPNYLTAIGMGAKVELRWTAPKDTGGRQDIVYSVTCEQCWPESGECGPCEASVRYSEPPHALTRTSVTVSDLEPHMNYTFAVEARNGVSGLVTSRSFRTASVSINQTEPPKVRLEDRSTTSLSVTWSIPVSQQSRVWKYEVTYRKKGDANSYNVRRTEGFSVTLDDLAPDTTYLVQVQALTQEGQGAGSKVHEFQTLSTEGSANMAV
In words: SPR.

*1 amine or outer side, *2 acyl side, *3 side chain or, on linkers, in order; H or OH if unused. Bridges are numbered along the chain shown (N, C = ends). Primed or numbered codes have the meaning given here. [ ]: non-standard residue; d: D form. The star is where a group is joined. TATA = O=C(CC[*:1])N1CN(C(=O)CC[*:2])CN(C(=O)CC[*:3])C1; NOTA = O=C(O)CN1CCN(CC(=O)O)CCN(CC(=O)*)CC1; Hyp = O=C(O)[C@@H]1C[C@@H](O)CN1; hArg = N=C(N)NCCCC[C@H](N)C(=O)O; PEG2′ = not defined here; Sar = CNCC(=O)O

His-tagged human EphA2, sequence (P29317 24-537): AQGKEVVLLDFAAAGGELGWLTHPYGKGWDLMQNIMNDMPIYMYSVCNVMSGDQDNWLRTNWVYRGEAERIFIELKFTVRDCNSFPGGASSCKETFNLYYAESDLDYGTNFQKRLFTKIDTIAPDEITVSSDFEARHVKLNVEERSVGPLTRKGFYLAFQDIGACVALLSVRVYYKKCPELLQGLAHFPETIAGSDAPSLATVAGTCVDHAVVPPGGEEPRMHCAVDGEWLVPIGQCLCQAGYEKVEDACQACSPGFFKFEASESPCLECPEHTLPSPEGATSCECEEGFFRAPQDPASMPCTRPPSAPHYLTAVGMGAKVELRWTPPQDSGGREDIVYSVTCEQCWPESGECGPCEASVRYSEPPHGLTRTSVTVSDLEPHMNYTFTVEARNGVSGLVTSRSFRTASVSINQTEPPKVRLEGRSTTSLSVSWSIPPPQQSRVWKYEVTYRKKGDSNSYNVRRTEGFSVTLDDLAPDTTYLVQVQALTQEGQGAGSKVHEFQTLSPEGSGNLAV

B1: AJ201 (peptide)
peptide: {NOTA-PEG2′}-GR[Sar][Sar][Sar]GA[hArg]DC[Hyp]LVNPLCLHP[dD]W[hArg]C-NH2
modifications: linker 10-17-24 via TATA; not fully specified; also: hydroxyproline, place not given here
Take B1: the dissociation rate constant (koff) is 0.00133 s⁻¹ in the assay with His-tagged human EphA2 and 0.00301 s⁻¹ with His-tagged mouse EphA2.

For the origin of these results see PMC11984392 (2025).
